Experimental data taken from the RNAGym collection of RNA variant scans (doi:10.7554/elife.80360).

B1: Hairpin Ribozyme (parent)
chain: GUCCUCUUUCACGUGCGCGUGAAAGAGAGAAGUGAACCAGAGAAACACACGUUGUGGUAUAUUACCUGGUA

Variants of: B1
Test: self-cleavage, relative activity (ratio to wild type); higher = more cleavage; co-transcriptional
With U33C U52C the self-cleavage was 0.177. For G40C G69A, the self-cleavage was 0.111. Work on U14A C65U yielded a self-cleavage of 0.292. A44C G51U showed a self-cleavage of 0.114. Variant A23C A36C has a self-cleavage of 0.286. C6A U63A showed a self-cleavage of 0.144. For G40C G51C, the self-cleavage was 0.127. In the case of G21C G27A, the self-cleavage is reported as 0.186. Work on G42U U58C yielded a self-cleavage of 0.259. Variant G42U U58G has a self-cleavage of 0.192. For G40A A49U, the self-cleavage was 0.0787. For A36C G40C, the self-cleavage was 0.135. For A31U U58G, the self-cleavage was 0.18. For G19A A36U, the self-cleavage was 0.542. In the case of A26G A49G, the self-cleavage is reported as 0.665. For C3U U53C, the self-cleavage was 0.672. With C38A C65U the self-cleavage was 0.204. Variant U9C A44G has a self-cleavage of 0.19. For G42C C48A, the self-cleavage was 0.134. In the case of A24U A43C, the self-cleavage is reported as 0.174. In the case of C4A A41G, the self-cleavage is reported as 0.13. U33A C38A gave a self-cleavage of 0.13. With G13C A43C the self-cleavage was 0.0516. Variant A45G A47G has a self-cleavage of 0.101. Variant G40C A41U has a self-cleavage of 0.13. Work on U9G U63C yielded a self-cleavage of 0.094. For G21U A49C, the self-cleavage was 0.219. G1U G68C showed a self-cleavage of 0.0827. Variant U8G U62A has a self-cleavage of 0.0946. In the case of G15C U58C, the self-cleavage is reported as 0.974. In the case of U5C C37U, the self-cleavage is reported as 0.348. A43U U58A showed a self-cleavage of 0.0678. In the case of U9C G56C, the self-cleavage is reported as 0.158. With G21A C50A the self-cleavage was 0.306. G40A A43U showed a self-cleavage of 0.0963. For C18U G34U, the self-cleavage was 1.46. In the case of A24C G69U, the self-cleavage is reported as 0.188. Work on G27C G57C yielded a self-cleavage of 0.0926. A35U C65A showed a self-cleavage of 0.625. G29C U62C gave a self-cleavage of 0.113. U20G U55A showed a self-cleavage of 0.147. Variant U20G U70A has a self-cleavage of 1.07. Work on U8G A44U yielded a self-cleavage of 0.184. In the case of C10U A23C, the self-cleavage is reported as 0.637. U62C A64C gave a self-cleavage of 0.149. Work on G1C C3U yielded a self-cleavage of 0.18. Work on G40A A64C yielded a self-cleavage of 0.16. In the case of U20A G21A, the self-cleavage is reported as 0.79. With U9G U53A the self-cleavage was 0.672. U8G A64U showed a self-cleavage of 0.146. Variant G25C G57A has a self-cleavage of 0.176. With A22U A44G the self-cleavage was 0.113. C46A U63C showed a self-cleavage of 0.225. Work on C38U C66U yielded a self-cleavage of 0.192. Variant A64U U70G has a self-cleavage of 0.155. For A22C A30G, the self-cleavage was 0.179. With A22C A30U the self-cleavage was 0.0473. C12G A43U gave a self-cleavage of 0.196. For C38U U67A, the self-cleavage was 0.119. For G13A A71U, the self-cleavage was 0.746. With G42C A45C the self-cleavage was 0.0604. Work on U52A U70C yielded a self-cleavage of 0.801. C6G G17U gave a self-cleavage of 0.369. Variant C46U G69C has a self-cleavage of 0.138. In the case of U2C A26G, the self-cleavage is reported as 0.121. U5G U52A gave a self-cleavage of 0.444. With C48U C66A the self-cleavage was 0.176. C46G U55A gave a self-cleavage of 0.142. For C6U A31C, the self-cleavage was 0.0728. Work on A23C A64G yielded a self-cleavage of 0.646. G34A G56U showed a self-cleavage of 0.128. Work on G21A U52C yielded a self-cleavage of 0.817. In the case of C3G U62G, the self-cleavage is reported as 0.128. In the case of A23G A26C, the self-cleavage is reported as 0.524. G15C A64U showed a self-cleavage of 0.186. For A28U G54C, the self-cleavage was 0.219. G13C A36U showed a self-cleavage of 0.4. With U2A U70G the self-cleavage was 0.224. Variant G1A U2C has a self-cleavage of 0.899. For G21U A39U, the self-cleavage was 0.293. In the case of A11G U58C, the self-cleavage is reported as 0.81. A43C G69A gave a self-cleavage of 0.105. For U52G G69C, the self-cleavage was 0.478. G13A A59C showed a self-cleavage of 0.196.
